The text below walks through data of article PMC7845591.

For this experiment, the target named is endothelial protein C receptor (EPCR), residues 16 to 210, biotinylated on the BAP tag (human) (UniProt Q9UNN8). Nature of the experiment: SPR; Biacore T200; biotinylated EPCR captured on a CAP chip (150 RU); twofold dilution series of CIDRα domain or synthetic binder injected 240 s, dissociation 300 s; 20 mM HEPES pH 7.5, 150 mM NaCl, 0.005% Tween 20, 25°C; global fit to a 1:1 model. For orientation: Surface plasmon resonance follows binding to a sensor surface in real time, without labels.
Chain of UniProt Q9UNN8 (Q9UNN8 16-210): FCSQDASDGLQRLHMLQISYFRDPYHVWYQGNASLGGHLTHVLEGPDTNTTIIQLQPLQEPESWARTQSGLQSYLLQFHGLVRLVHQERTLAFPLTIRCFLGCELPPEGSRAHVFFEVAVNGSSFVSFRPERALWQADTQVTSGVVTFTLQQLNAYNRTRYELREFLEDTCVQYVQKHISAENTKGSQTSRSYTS

As usually defined, the Kd is the concentration at which binding is half-saturated. A lower Kd goes with tighter binding. Substance “HB3var03 CIDRα1.4 domain D576A K642A double mutant (domain or fragment)” had a dissociation constant (Kd) of 220 nM.
